In patent US6723321B2 (priority 1998, dated 2004):
Read-outs that look alike come from different tables or passages of the source.

Tests used:
[1] = test system: CCCC(=O)SCCNC(=O)CCNC(=O)[C@H](O)C(C)(C)COP(=O)(O)OP(=O)(O)OC[C@H]1O[C@@H](n2cnc3c(N)ncnc32)[C@H](O)[C@@H]1OP(=O)(O)O; experiment: purified protein, by the assay type; details: other: acyl substrate varied, SAM held at 95 μM
RhlI [2] = target: T1, RhlI (Pseudomonas aeruginosa, UniProt P54291); experiment: radioactive in vitro assay for RhlI activity (C14-labeled SAM); assay type: biochemical; details: for Activity in radioactive assay: potential acyl group substrates, 61 μM SAM as co-substrate
RhlI [3] = target: T1, RhlI; assay type: biochemical; details: acyl substrate varied, SAM held at 95 μM; for Km: read-out: Apparent Km
RhlI [4] = target: T1, RhlI; assay type: biochemical
RhlI [5] = target: T1, RhlI; assay type: biochemical; details: 61 μM SAM as co-substrate; tested in the R. solanacearum bioassay
[6] = potential acyl group substrates, 61 μM SAM as co-substrate

T1 sequence (P54291 whole entry, looked up): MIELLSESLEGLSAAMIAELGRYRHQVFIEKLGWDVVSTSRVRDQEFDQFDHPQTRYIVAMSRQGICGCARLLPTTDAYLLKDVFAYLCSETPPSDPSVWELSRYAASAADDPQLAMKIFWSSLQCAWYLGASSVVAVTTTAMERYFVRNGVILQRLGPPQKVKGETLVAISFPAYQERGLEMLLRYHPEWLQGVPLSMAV

| Compound | Activity in radioactive assay (RhlI [2]) | Apparent Vmax (RhlI [3]) | Activity in butyryl HSL bioassay (RhlI [4]; [6]) | Km (RhlI [3]) | other results |
| --- | --- | --- | --- | --- | --- |
| RhlI (Pseudomonas aeruginosa PAO1) |  |  |  |  | Km [1]: 230 µM |
| CCCCCC(=O)SCCNC(=O)CCNC(=O)[C@H](O)C(C)(C)COP(=O)(O)OP(=O)(O)OC[C@H]1O[C@@H](n2cnc3c(N)ncnc32)[C@H](O)[C@@H]1OP(=O)(O)O [hexanoyl-CoA] | 4 nmoles butyryl HSL formed min^−1 mg^−1 |  |  |  |  |
| NC(=O)C1=CN([C@@H]2O[C@H](COP(=O)(O)OP(=O)(O)OC[C@H]3O[C@@H](n4cnc5c(N)ncnc54)[C@H](OP(=O)(O)O)[C@@H]3O)[C@@H](O)[C@H]2O)C=CC1 [NADPH] |  |  |  |  | effect on the reaction rate (RhlI [2]; included with butyryl-ACP and SAM): slightly increase |
| CCCC(=O)SCCNC(=O)CCNC(=O)[C@H](O)C(C)(C)COP(=O)(O)OP(=O)(O)OC[C@H]1O[C@@H](n2cnc3c(N)ncnc32)[C@H](O)[C@@H]1OP(=O)(O)O [butyryl-CoA] | 82 nmoles butyryl HSL formed min^−1 mg^−1 | 2.1 mol of butyryl HSL min^−1 mol^−1 of RhlI | 38 nmoles butyryl HSL formed min^−1 mg^−1 |  |  |
| octanoyl-ACP: acylated acyl carrier protein with attached octanoyl group | 28 nmoles butyryl HSL formed min^−1 mg^−1 | 1.8 mol of butyryl HSL min^−1 mol^−1 of RhlI |  | 43 µM | Activity in radioactive assay (RhlI [2]; listed as Octanoyl-ACP): demonstrated to be a substrate of RhlI; Activity in bioassay (R. solanacearum bioassay) (RhlI [5]): not detected as a substrate |
| butyryl-ACP: acylated acyl carrier protein with attached butyryl group; acyl substrate of RhlI | 650 nmoles butyryl HSL formed min^−1 mg^−1 |  | 532 nmoles butyryl HSL formed min^−1 mg^−1 | 6 µM |  |
| N[C@@H](CCS)C(=O)O [homocysteine] |  |  |  |  | activity, fold less when compared to reactions containing SAM (RhlI [4]; butyryl HSL bioassay, amino acid substrate): at least 150 fold; Activity in butyryl HSL bioassay (RhlI [4]; potential amino acid substrates, 39 μM butyryl ACP as co-substrate): <2 nmoles butyryl HSL formed min^−1 mg^−1 |
| hexanoyl-ACP: acylated acyl carrier protein with attached hexanoyl group | 263 nmoles butyryl HSL formed min^−1 mg^−1 | 9.6 mol of butyryl HSL min^−1 mol^−1 of RhlI | 91 nmoles butyryl HSL formed min^−1 mg^−1 | 8 µM |  |
